We go through 1 molecule from article PMC9520037 (The Journal of Biological Chemistry, 2022).

The target in this assay is T1, MAP2c-1-467 with N-terminal histidine tag (H6-MAP2c) (rat, UniProt P15146-3 1-467, RED-tris-NTA fluorescent label on the histidine tag).
T1 sequence: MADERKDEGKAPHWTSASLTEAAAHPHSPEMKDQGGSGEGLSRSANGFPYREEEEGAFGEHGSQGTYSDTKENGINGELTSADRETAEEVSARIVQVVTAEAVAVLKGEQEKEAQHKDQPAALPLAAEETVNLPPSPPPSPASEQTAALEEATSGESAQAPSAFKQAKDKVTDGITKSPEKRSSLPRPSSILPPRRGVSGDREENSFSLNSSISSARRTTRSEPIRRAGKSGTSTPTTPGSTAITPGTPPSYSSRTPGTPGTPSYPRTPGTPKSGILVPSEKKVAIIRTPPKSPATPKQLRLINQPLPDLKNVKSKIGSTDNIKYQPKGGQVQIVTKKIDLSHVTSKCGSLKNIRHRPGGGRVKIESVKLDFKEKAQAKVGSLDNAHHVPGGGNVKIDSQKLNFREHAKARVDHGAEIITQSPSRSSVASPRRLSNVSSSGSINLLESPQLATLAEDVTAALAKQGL
Nature of the assay: MST.

B1: SH3 domain of Fyn fused to hexahistidine tag (Fyn-SH3) (domain or fragment)
chain: not shown
On to B1, for which the Kd (in general, the constant that tells how readily two partners part at equilibrium) was 22 ± 5 nM.
